Results as given in patent US20260265360A1 (NEURACLE SCIENCE, published 2026).
Numbering of substitutions follows the chain as printed. Blank lines part the entries; values can stand above or below the binder they belong to. Ends that are not written are not given here.

What was measured:
[1] = target: T1, FAM19A5 mutant M2 (human); assay: ELISA on phage-expressed FAM19A5 mutants M1-M8
T1 chain: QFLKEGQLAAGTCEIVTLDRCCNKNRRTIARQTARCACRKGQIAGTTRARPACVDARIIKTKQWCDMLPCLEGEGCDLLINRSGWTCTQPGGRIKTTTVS

[2] = target: T2, FAM19A5 mutant M8 (human); assay: ELISA on phage-expressed FAM19A5 mutants M1-M8
T2 chain: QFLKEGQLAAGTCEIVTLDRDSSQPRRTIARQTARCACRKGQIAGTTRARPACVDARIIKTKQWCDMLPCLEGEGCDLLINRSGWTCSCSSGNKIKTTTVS

[3] = target: T3, FAM19A5 mutant M7 (human); assay: ELISA on phage-expressed FAM19A5 mutants M1-M8
T3 chain: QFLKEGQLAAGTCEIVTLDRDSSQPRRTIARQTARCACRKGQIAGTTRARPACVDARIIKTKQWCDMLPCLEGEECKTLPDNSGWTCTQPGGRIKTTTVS

[4] = target: T4, FAM19A5 mutant M4 (human); assay: ELISA on phage-expressed FAM19A5 mutants M1-M8
T4 chain: T1 chain with C21D, C22S, N23S, K24Q, N25P, A34V, R35K, A37S, R39F, K40P

[5] = target: T5, FAM19A5 mutant M3 (human); assay: ELISA on phage-expressed FAM19A5 mutants M1-M8
T5 chain: T1 chain with C21D, C22S, N23S, K24Q, N25P, R27I, T28E, I29E, A30R, R31S

[6] = target: T6, FAM19A5 mutant M1 (human); assay: ELISA on phage-expressed FAM19A5 mutants M1-M8
T6 chain: T1 chain with I15V, V16I, T17A, L18A, D19H, C21D, C22S, N23S, K24Q, N25P

[7] = target: T7, FAM19A5 mutant M6 (human); assay: ELISA on phage-expressed FAM19A5 mutants M1-M8
T7 chain: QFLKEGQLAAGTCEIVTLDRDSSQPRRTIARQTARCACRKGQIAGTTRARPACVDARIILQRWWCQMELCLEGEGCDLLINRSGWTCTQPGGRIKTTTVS

[8] = target: T8, Human FAM19A5 protein (Wild Type) (human, UniProt Q7Z5A7 44-132); assay: value given in the HDX-MS sample preparation; method of its determination not stated
T8 construct: also called FAM19A5 antigen; TAFA5

[9] = target: T9, FAM19A5 epitope fragment F3, BSA-conjugated (human, conjugated to BSA); assay: ELISA, plate-coated BSA-conjugated FAM19A5 fragments F1-F6
T9 peptide: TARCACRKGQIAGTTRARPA
Description: (§1) Binding of the different anti-FAM19A5 antibodies to the BSA-conjugated peptide fragments F1-F6 was determined by Western blot analysis or ELISA assay. For the Western blot analysis, BSA-conjugated FAM19A5 fragments F1-F6 were separated by SDS polyacrylamide gel electrophoresis and transferred to a nitrocellulose membrane by the standard procedure. The membrane was incubated with the anti-FAM19A5 antibody (e.g., 1-65, […], 1-65-scFv-rabbit Fc-SSS), and the antigen-antibody complexes were detected with the appropriate secondary antibody conjugated with horse-radish peroxidase (anti-rabbit IgG (Fc specific)-HRP, 1:4000 dilution). For the ELISA assay, the following protocol was used. FAM19A5 fragment F1-F6 (diluted to 1 μg/mL in 50 mM carbonate buffer (Biosesang) or to 20 μg/mL for high concentration analysis) were used to coat the wells of 96-well immuno plates (Thermo Scientific) (100 μL/well) overnight at 4° C. and then subsequently washed twice in 1×PBS. The plates were then blocked with the blocking buffer (100 μL/well) for 1 hour at room temperature. During the 1-hour incubation, the relavant anti-FAM19A5 antibodies were diluted to 1 μg/mL (or 20 μg/mL for high concentration analysis) in the diluent buffer. Once the plates were washed (2× using 1×PBS), the diluted anti-FAM19A5 antibodies were added to the appropriate wells, and the plates were incubated at room temperature for 1 hour. The plates were subsequently washed for a total of five times using the washing buffer. Next, the ODP substrate (prepared by dissolving one ODP tablet (O-phenylenediamine Dihydrochloride, Thermo) into 9 mL of sterilized deionized water and 1 mL of 10× stable Peroxide Stable buffer (Theromo)) was added to each of the wells, and the color change reaction was allowed to occur for 10 minutes. This reaction was stopped by adding 100 μL of 2N H2SO4 (Daejung) to the wells. The absorption value of each of the wells was detected at 492 nm using a 96-well microplate reader (Molecular Device).
(§2) As shown in FIGS. 19 and 20A, the anti-FAM19A5 antibody 1-65 bound strongly to fragment F5 as measured by both Western Blot and ELISA assay, respectively.

[10] = target: T10, FAM19A5 epitope fragment F6, BSA-conjugated (human, conjugated to BSA); assay: as above
T10 peptide: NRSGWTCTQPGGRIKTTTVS
Description: as §1, §2

[11] = target: T11, FAM19A5 epitope fragment F2, BSA-conjugated (human, conjugated to BSA); assay: as above
T11 peptide: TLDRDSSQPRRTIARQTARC
Description: as §1, §2

[12] = target: T12, FAM19A5 epitope fragment F4, BSA-conjugated (human, conjugated to BSA); assay: as above
T12 peptide: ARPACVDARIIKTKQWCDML
Description: as §1, §2

[13] = target: T13, FAM19A5 epitope fragment F5, BSA-conjugated (human, conjugated to BSA); assay: as above
T13 peptide: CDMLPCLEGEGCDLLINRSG
Description: as §1, §2

[14] = target: T14, FAM19A5 epitope fragment F1, BSA-conjugated (human, also: conjugated to BSA); assay: as above
T14 construct: which number belongs to which fragment is not spelled out
T14 peptide: QLAAGTCEIVTLDR
Description: as §1, §2

[15] = target: T11, FAM19A5 epitope fragment F2, …; assay: ELISA, plate-coated BSA-conjugated FAM19A5 fragments F1-F6 (data not shown)
Description: Binding of the different anti-FAM19A5 antibodies to the BSA-conjugated peptide fragments F1-F6 was determined by Western blot analysis or ELISA assay. For the Western blot analysis, BSA-conjugated FAM19A5 fragments F1-F6 were separated by SDS polyacrylamide gel electrophoresis and transferred to a nitrocellulose membrane by the standard procedure. The membrane was incubated with the anti-FAM19A5 antibody (e.g., 1-65, […], 1-65-scFv-rabbit Fc-SSS), and the antigen-antibody complexes were detected with the appropriate secondary antibody conjugated with horse-radish peroxidase (anti-rabbit IgG (Fc specific)-HRP, 1:4000 dilution). For the ELISA assay, the following protocol was used. FAM19A5 fragment F1-F6 (diluted to 1 μg/mL in 50 mM carbonate buffer (Biosesang) or to 20 μg/mL for high concentration analysis) were used to coat the wells of 96-well immuno plates (Thermo Scientific) (100 μL/well) overnight at 4° C. and then subsequently washed twice in 1×PBS. The plates were then blocked with the blocking buffer (100 μL/well) for 1 hour at room temperature. […] The absorption value of each of the wells was detected at 492 nm using a 96-well microplate reader (Molecular Device).
as §2

[16] = target: T15, F2-07-BSA (#7) (human, conjugated to BSA); assay: ELISA, plate-coated F2 mutant peptides (BSA-conjugated)
T15 construct: already contained in the entry; also called mutant F2 peptide fragment #7
T15 peptide: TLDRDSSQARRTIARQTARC

[17] = target: T16, F2-02-BSA (#2) (human, conjugated to BSA); assay: as above
T16 construct: already contained in the entry; also called mutant F2 peptide fragment #2
T16 peptide: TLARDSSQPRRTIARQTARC

[18] = target: T17, F2-05-BSA (#5) (human, conjugated to BSA); assay: as above
T17 construct: already contained in the entry; also called mutant F2 peptide fragment #5
T17 peptide: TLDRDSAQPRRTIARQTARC

[19] = target: T18, F2-01-BSA (#1) (human, conjugated to BSA); assay: as above
T18 construct: already contained in the entry; also called mutant F2 peptide fragment #1
T18 peptide: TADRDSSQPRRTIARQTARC

[20] = target: T19, F2-04-BSA (#4) (human, conjugated to BSA); assay: as above
T19 construct: already contained in the entry; also called mutant F2 peptide fragment #4
T19 peptide: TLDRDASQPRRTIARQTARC

[21] = target: T20, F2-12-BSA (#12) (human, conjugated to BSA); assay: as above
T20 construct: already contained in the entry; also called mutant F2 peptide fragment #12
T20 peptide: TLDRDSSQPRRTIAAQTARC

[22] = target: T21, F2-08-BSA (#8) (human, conjugated to BSA); assay: as above
T21 construct: already contained in the entry; also called mutant F2 peptide fragment #8
T21 peptide: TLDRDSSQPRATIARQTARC

[23] = target: T22, F2-09-BSA (#9) (human, conjugated to BSA); assay: as above
T22 construct: already contained in the entry; also called mutant F2 peptide fragment #9
T22 peptide: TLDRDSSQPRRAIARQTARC

[24] = target: T23, F2-06-BSA (#6) (human, conjugated to BSA); assay: as above
T23 construct: already contained in the entry; also called mutant F2 peptide fragment #6
T23 peptide: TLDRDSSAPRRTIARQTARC

[25] = target: T24, F2-10-BSA (#10) (human, conjugated to BSA); assay: as above
T24 construct: already contained in the entry; also called mutant F2 peptide fragment #10
T24 peptide: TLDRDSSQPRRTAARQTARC

[26] = target: T25, F2-13-BSA (#13) (human, conjugated to BSA); assay: as above
T25 construct: already contained in the entry; also called mutant F2 peptide fragment #13
T25 peptide: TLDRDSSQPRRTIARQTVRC

binding result [1]: binds
binding result [2]: no binding
binding result [3]: binds
binding result [4]: no binding
binding result [5]: binds
binding result [6]: binds
binding result [7]: binds
Kd [8]: 1 nM
binding result [9]: no binding
binding result [10]: no binding
binding result [11]: no binding
binding result [12]: no binding
binding result [13]: no binding
binding result [14]: no binding
B1: Anti-FAM19A5 antibody 2-13 (antibody, V domains shown)
VH: AVTLDESGGGLQTPGGALSLVCKASGFTFSSHGMFWVRQTPGKGLEYVAEITNDGSGTNYGSAVKGRATISRDNGQSTVRLQLNNLRAEDTGTYFCARSTYECPGGFSCWGDTGQIDAWGHGTEVIVSS
VL: ALTQPSSVSANPGETVKITCSGGSYSYGWFQQKSPGSALVTVIYWDDERPSDIPSRFSGALSGSTNTLTITGVQADDEAVYFCGTEDISGTAGVFGAGTTLTVL
notes: also called clone 2-13

binding result [15]: binds
binding result [1]: no binding
binding result [16]: binds
binding result [17]: binds
binding result [18]: binds
binding result [19]: binds
binding result [20]: binds
binding result [21]: binds
binding result [22]: binds
binding result [23]: binds
binding result [24]: binds
binding result [25]: binds
binding result [26]: binds
B2: Anti-FAM19A5 antibody 1-28 (antibody, V domains shown)
VH: AVTLDESGGGLQTPGGALSLVCKASGFDFSDYGMGWVRQAPGKGLEWVAAIRSDGSNPSYGSAVKGRATISKDNGRSTVRLQLNNLRAEDTATYYCAKDGNGYCALDAYRSGGYSCGVYPGSIDAWGHGTEVIVSS
VL: ALTQPSSVSANLEGTVEITCSGSGYGYGWYQQKSPGSAPVTVIYQNDKRPSDIPSRFSGSKSGSTGTLTITGVQVEDEAVYYCGSEDSSTLAGIFGAGTTLTVL
